Results: the supplement of paper PMC7125110
± gives the standard error. Variants at the floor of the assay were thinned out.

B1: glmS ribozyme (parent)
chain: AUAAAAGCGCCAGAACUACAGAAAUGUAGUUGACGAGGAGGAGGUUUAUCGAAUUUUCGGCGGAUGCCUCCAAA

Variants of: B1
Experiment: self-cleavage kobs at 10000 uM GlcN6P; higher = faster cleavage; RNA array
Conditions: with glucosamine-6-phosphate
Method in brief: (§1)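 Barcoded ribozyme variants on sequenced MiSeq chips were transcribed in situ by E. coli RNA polymerase and followed at 37 °C through a hybridised Cy3 probe. Glucosamine-6-phosphate at 40 μM to 10 mM in HEPES/KCl/Mg(OAc)2 buffer was flowed in, and tiles were imaged over ~14 h. Signals were normalised to baseline and to non-cleaving reference variants, and per-tile medians were fit to one- or two-exponential decays to give kobs. Weighted Michaelis–Menten fits across concentrations gave kcat and KM.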

G9U G13A U55G and G9U G41A C50U G60C cannot be ordered by “self-cleavage kobs at 10000 uM GlcN6P” value: under 1e-05 s⁻¹ for the first, under 1e-05 s⁻¹ for the second.

G7A C16G A52U C61A and C8U U45G C50U U65C cannot be ordered by “self-cleavage kobs at 10000 uM GlcN6P” value: under 1e-05 s⁻¹ for the first, under 1e-05 s⁻¹ for the second.

A5U C8G G9U U30C and A1C U2A A3U G7A C8G G9C C10G C16G cannot be ordered by “self-cleavage kobs at 10000 uM GlcN6P” value: under 1e-05 s⁻¹ for the first, under 1e-05 s⁻¹ for the second.

C8A G38A G40C U57C and G9C G13C A14U U31A A48G C61A cannot be ordered by “self-cleavage kobs at 10000 uM GlcN6P” value: under 1e-05 s⁻¹ for the first, under 1e-05 s⁻¹ for the second.

First: A5U A39C U65G C68U
Second: A6U G51C G63C U69G
The “self-cleavage kobs at 10000 uM GlcN6P” value of the first is higher: 4.87e-05 ± 1.6e-05 s⁻¹ for the first, under 1e-05 s⁻¹ for the second.

C10G U55C and C8A G13A U46A cannot be ordered by “self-cleavage kobs at 10000 uM GlcN6P” value: under 1e-05 s⁻¹ for the first, under 1e-05 s⁻¹ for the second.

C8U C50A G51U A52U and C8G C16U C68A cannot be ordered by “self-cleavage kobs at 10000 uM GlcN6P” value: under 1e-05 s⁻¹ for the first, under 1e-05 s⁻¹ for the second.

A6G G7A C16G U47A A53C C58A and C8G G9A G35A A36U cannot be ordered by “self-cleavage kobs at 10000 uM GlcN6P” value: under 1e-05 s⁻¹ for the first, under 1e-05 s⁻¹ for the second.

A6U A12U A53G C67G and A6U G9A G29C C50U U69G are within error of each other in “self-cleavage kobs at 10000 uM GlcN6P” value: 8.82e-05 ± 1.8e-05 s⁻¹ for the first, 9.44e-05 ± 3.8e-05 s⁻¹ for the second.

C10A U45A U46C C70A and A6U G44U C71A cannot be ordered by “self-cleavage kobs at 10000 uM GlcN6P” value: under 1e-05 s⁻¹ for the first, under 1e-05 s⁻¹ for the second.

C8U U31C A52U and A6G G35C U46C cannot be ordered by “self-cleavage kobs at 10000 uM GlcN6P” value: under 1e-05 s⁻¹ for the first, under 1e-05 s⁻¹ for the second.

G9A A39C G41A A48C U49A and G9U A12G C16A cannot be ordered by “self-cleavage kobs at 10000 uM GlcN6P” value: under 1e-05 s⁻¹ for the first, under 1e-05 s⁻¹ for the second.

C8U G37C G43A C58A and C8A U45A A52G C61G C67U cannot be ordered by “self-cleavage kobs at 10000 uM GlcN6P” value: under 1e-05 s⁻¹ for the first, under 1e-05 s⁻¹ for the second.

Going from G7A A64G to A6C A48U U54A C67U, the “self-cleavage kobs at 10000 uM GlcN6P” value falls from 4.09e-05 ± 9.6e-06 s⁻¹ to under 1e-05 s⁻¹.

C10A A36U A39U and C8G A15G G37C U49G cannot be ordered by “self-cleavage kobs at 10000 uM GlcN6P” value: under 1e-05 s⁻¹ for the first, under 1e-05 s⁻¹ for the second.

Compared with C10G C50U G62U C70G, A6C C50G A64U is higher in “self-cleavage kobs at 10000 uM GlcN6P” value: under 1e-05 s⁻¹ for the first, 3.95e-05 ± 2e-05 s⁻¹ for the second.

C8G C10U U54G and C8A A48U G66U cannot be ordered by “self-cleavage kobs at 10000 uM GlcN6P” value: under 1e-05 s⁻¹ for the first, under 1e-05 s⁻¹ for the second.

A6U A39U U54A G60U and G9U A12G G37U cannot be ordered by “self-cleavage kobs at 10000 uM GlcN6P” value: under 1e-05 s⁻¹ for the first, under 1e-05 s⁻¹ for the second.

A6C G9A C34A G40C G43A C50U U54A C58G C68U and G9A U56C C58G cannot be ordered by “self-cleavage kobs at 10000 uM GlcN6P” value: under 1e-05 s⁻¹ for the first, under 1e-05 s⁻¹ for the second.

A6U C11G G41C G62A G66U and G9A C16G G51A G60U cannot be ordered by “self-cleavage kobs at 10000 uM GlcN6P” value: under 1e-05 s⁻¹ for the first, under 1e-05 s⁻¹ for the second.

G7A G29C G32U U57C C58A and C8G C34A G66C cannot be ordered by “self-cleavage kobs at 10000 uM GlcN6P” value: under 1e-05 s⁻¹ for the first, under 1e-05 s⁻¹ for the second.

G9C G32C C71U and A6G A12G G40U U47C cannot be ordered by “self-cleavage kobs at 10000 uM GlcN6P” value: under 1e-05 s⁻¹ for the first, under 1e-05 s⁻¹ for the second.

A6C U30G G35U and C8G C34U G43U G62U C71U cannot be ordered by “self-cleavage kobs at 10000 uM GlcN6P” value: under 1e-05 s⁻¹ for the first, under 1e-05 s⁻¹ for the second.

G9U C34G C70G and A6C U31G G40C cannot be ordered by “self-cleavage kobs at 10000 uM GlcN6P” value: under 1e-05 s⁻¹ for the first, under 1e-05 s⁻¹ for the second.

Going from C8A C50G U54G C68U to C10U A12G G13U A14C G41A, the “self-cleavage kobs at 10000 uM GlcN6P” value falls from 6.41e-05 ± 2.3e-05 s⁻¹ to under 1e-05 s⁻¹.

C8U A36U U45A and C8U U30G G43C cannot be ordered by “self-cleavage kobs at 10000 uM GlcN6P” value: under 1e-05 s⁻¹ for the first, under 1e-05 s⁻¹ for the second.

C10U C11U G66C and A6C U47G U49C C67U cannot be ordered by “self-cleavage kobs at 10000 uM GlcN6P” value: under 1e-05 s⁻¹ for the first, under 1e-05 s⁻¹ for the second.

G9C U54G and C8U G32C A36C G38C cannot be ordered by “self-cleavage kobs at 10000 uM GlcN6P” value: under 1e-05 s⁻¹ for the first, under 1e-05 s⁻¹ for the second.

C8U G32C A33C G40C and C10A A36U G59A G60A cannot be ordered by “self-cleavage kobs at 10000 uM GlcN6P” value: under 1e-05 s⁻¹ for the first, under 1e-05 s⁻¹ for the second.

Going from G7A U30G A33G U69G to G7C U49A C50U A53U U54C C68U, the “self-cleavage kobs at 10000 uM GlcN6P” value falls from 0.000162 ± 2.9e-05 s⁻¹ to under 1e-05 s⁻¹.

Going from G7A U57A C58A to U54G U57A C67G, the “self-cleavage kobs at 10000 uM GlcN6P” value rises from under 1e-05 s⁻¹ to 7.25e-05 ± 1.8e-05 s⁻¹.

G9C A39U A42U and G7U G32U G59C G62U U65G cannot be ordered by “self-cleavage kobs at 10000 uM GlcN6P” value: under 1e-05 s⁻¹ for the first, under 1e-05 s⁻¹ for the second.

C8U A12U A42C C70U and C8G G43U G51U U54G cannot be ordered by “self-cleavage kobs at 10000 uM GlcN6P” value: under 1e-05 s⁻¹ for the first, under 1e-05 s⁻¹ for the second.

A6U U47G C50A and G9A A15U G29U C68G cannot be ordered by “self-cleavage kobs at 10000 uM GlcN6P” value: under 1e-05 s⁻¹ for the first, under 1e-05 s⁻¹ for the second.

First: G7U G29U G32A A42U U55C G62C
Second: A6G C50G C68G
The “self-cleavage kobs at 10000 uM GlcN6P” value of the first is lower: under 1e-05 s⁻¹ for the first, 2.86e-05 ± 1.1e-05 s⁻¹ for the second.

In the case of C10U A15U U45A, the “self-cleavage kobs at 10000 uM GlcN6P” value is reported as under 1e-05 s⁻¹.

Variants of: B1
Experiment: self-cleavage kobs at 2500 uM GlcN6P; higher = faster cleavage; RNA array
Conditions: with glucosamine-6-phosphate
Method in brief: as §1

First: U57C G60A G66C
Second: U57C U69C
The “self-cleavage kobs at 2500 uM GlcN6P” value of the first is lower: under 1e-05 s⁻¹ for the first, 6.42e-05 ± 2.1e-05 s⁻¹ for the second.

Compared with A53G C61G G62A, U54A C61A A64U C68U is higher in “self-cleavage kobs at 2500 uM GlcN6P” value: under 1e-05 s⁻¹ for the first, 8.54e-05 ± 3.8e-05 s⁻¹ for the second.

U57C C58A C67G and U57G C58A C70U C71G are within error of each other in “self-cleavage kobs at 2500 uM GlcN6P” value: 0.000113 ± 5.6e-05 s⁻¹ for the first, 9.31e-05 ± 2.5e-05 s⁻¹ for the second.

U54G C67G C70U C71U and U55A U56A G66C are within error of each other in “self-cleavage kobs at 2500 uM GlcN6P” value: 0.000105 ± 1.9e-05 s⁻¹ for the first, 0.000134 ± 3.4e-05 s⁻¹ for the second.

First: A53U C58G C61G C71G
Second: G59U A64C G66C
The “self-cleavage kobs at 2500 uM GlcN6P” value of the first is higher: 0.000415 ± 0.00016 s⁻¹ for the first, under 1e-05 s⁻¹ for the second.

Compared with U54G U57A C67G, G60U C67A U69A is lower in “self-cleavage kobs at 2500 uM GlcN6P” value: 7.42e-05 ± 2.5e-05 s⁻¹ for the first, under 1e-05 s⁻¹ for the second.

Compared with U57A C67A C71A, G63C G66U C71A is lower in “self-cleavage kobs at 2500 uM GlcN6P” value: 0.000181 ± 4.1e-05 s⁻¹ for the first, under 1e-05 s⁻¹ for the second.
